Experiments:
Assay in all cases: SPR (ProteOn), CD73 variant immobilized on HTG chip
KO_Cterm CD73 chimera = molecular target: T1, KO_Cterm CD73 chimera (human; chicken)
T1 construct: also called C-terminal domain-swapped CD73
T1 chain: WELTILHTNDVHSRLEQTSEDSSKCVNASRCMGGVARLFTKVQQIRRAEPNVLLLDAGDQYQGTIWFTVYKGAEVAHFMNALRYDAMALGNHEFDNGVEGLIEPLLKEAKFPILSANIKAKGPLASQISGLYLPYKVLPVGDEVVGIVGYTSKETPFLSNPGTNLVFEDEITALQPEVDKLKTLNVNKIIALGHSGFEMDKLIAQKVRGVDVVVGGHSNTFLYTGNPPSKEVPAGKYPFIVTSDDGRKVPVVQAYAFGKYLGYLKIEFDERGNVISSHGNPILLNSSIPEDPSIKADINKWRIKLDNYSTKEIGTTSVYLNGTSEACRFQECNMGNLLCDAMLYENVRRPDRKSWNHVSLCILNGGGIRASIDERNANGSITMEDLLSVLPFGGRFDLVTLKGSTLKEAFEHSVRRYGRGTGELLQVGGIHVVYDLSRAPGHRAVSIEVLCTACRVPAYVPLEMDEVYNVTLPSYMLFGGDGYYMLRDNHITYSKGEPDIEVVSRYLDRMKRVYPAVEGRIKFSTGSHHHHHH
Description: (§1) Binding of MEDI9447 to wild-type and mutant CD73 proteins was measured by surface plasmon resonance (SPR) using a ProteOn instrument (BioRad). CD73 crude cell supernatant protein samples were diluted to 3 µg/ml in PBS, 0.005% Tween-20, pH 7.4 (BioRad) and immobilized to ~400 RU on a HTG tris-NTA sensor chip (BioRad) pre-activated with 10 mM NiSO₄, 10 mM MES, pH 6.0 (BioRad). An equivalently diluted crude cell supernatant sample from non-transfected cells was included as a reference channel control. Sensorgrams were recorded by flowing two-fold dilutions of MEDI9447 prepared in PBS, 0.005% Tween-20, pH 7.4, ranging from 5 nM to 0.31 nM. […] Antibody binding was measured at a flow rate of 100 µL/min with a 3 min association phase and 20 min dissociation phase. The sensor chip surface was regenerated between each run by an 800 s injection of 300 mM EDTA, pH 8.5 (BioRad) at a flow rate of 30 µL/min. Binding kinetics were analyzed using the ProteOn data analysis software. Double referencing was performed and, unless noted otherwise, a 1:1 Langmuir binding model was utilized to fit the data. Some CD73 variants containing mutations within the amino acid region 171-188 fit poorly to a 1:1 model (i.e., Chi² values >10% of Rmax). Where noted, these variants were fit with a heterogenous antigen (2:1) model. […] Due to the assay format (antigen immobilized) and the dimeric state of CD73, KD values may be exaggerated due to avidity effects. However, it is not anticipated that this impacts ranking of MEDI9447 binding to the different CD73 variants.

[1] = molecular target: T2, Human CD73 V144K+K180A, His-tagged (human, UniProt P21589 27-549)
T2 chain: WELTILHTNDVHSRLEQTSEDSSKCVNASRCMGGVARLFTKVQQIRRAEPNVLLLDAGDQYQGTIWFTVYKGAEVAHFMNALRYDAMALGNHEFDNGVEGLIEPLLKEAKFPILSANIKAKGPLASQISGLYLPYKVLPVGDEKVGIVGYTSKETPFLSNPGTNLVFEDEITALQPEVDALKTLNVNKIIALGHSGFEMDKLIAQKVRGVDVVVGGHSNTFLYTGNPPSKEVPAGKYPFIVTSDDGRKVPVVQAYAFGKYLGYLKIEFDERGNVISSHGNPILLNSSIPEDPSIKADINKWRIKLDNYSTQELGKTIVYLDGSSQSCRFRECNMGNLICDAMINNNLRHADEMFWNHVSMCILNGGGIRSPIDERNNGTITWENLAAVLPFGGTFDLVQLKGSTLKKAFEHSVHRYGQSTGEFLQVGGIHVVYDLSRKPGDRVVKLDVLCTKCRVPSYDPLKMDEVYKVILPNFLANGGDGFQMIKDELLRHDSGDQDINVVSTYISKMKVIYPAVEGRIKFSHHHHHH
Description: as §1

[2] = molecular target: T3, Human CD73 V144K+N185G, His-tagged (human, UniProt P21589 27-549)
T3 chain: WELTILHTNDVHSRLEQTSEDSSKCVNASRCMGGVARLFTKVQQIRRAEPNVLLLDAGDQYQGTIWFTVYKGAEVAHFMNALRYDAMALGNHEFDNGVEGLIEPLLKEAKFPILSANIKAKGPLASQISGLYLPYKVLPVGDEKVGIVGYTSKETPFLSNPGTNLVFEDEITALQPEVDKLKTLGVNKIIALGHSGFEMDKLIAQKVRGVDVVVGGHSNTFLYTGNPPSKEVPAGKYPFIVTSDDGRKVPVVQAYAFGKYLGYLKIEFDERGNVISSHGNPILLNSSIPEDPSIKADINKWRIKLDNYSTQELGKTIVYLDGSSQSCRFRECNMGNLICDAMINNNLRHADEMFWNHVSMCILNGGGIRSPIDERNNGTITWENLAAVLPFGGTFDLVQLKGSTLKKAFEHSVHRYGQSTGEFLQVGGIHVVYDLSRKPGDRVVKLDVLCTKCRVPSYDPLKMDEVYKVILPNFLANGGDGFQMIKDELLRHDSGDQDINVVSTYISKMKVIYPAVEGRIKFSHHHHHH
Description: as §1

[3] = molecular target: T4, Human CD73 V144K, His-tagged (human, UniProt P21589 27-549)
T4 sequence: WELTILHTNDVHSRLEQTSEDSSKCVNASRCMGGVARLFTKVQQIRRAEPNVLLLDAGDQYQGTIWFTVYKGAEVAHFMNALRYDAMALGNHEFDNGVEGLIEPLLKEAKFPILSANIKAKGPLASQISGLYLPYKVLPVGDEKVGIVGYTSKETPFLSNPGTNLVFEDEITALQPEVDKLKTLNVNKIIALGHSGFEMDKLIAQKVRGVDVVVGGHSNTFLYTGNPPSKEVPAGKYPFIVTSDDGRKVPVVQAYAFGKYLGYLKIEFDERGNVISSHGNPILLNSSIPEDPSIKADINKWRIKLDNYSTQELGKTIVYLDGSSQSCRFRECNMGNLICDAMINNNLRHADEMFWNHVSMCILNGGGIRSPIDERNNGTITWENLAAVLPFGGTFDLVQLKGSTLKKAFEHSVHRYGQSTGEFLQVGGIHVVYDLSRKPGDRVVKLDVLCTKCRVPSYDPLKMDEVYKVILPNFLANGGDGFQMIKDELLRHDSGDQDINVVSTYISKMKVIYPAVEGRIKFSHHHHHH
Description: as §1

B1: MEDI9447 (antibody, human IgG1, lambda, V domains shown)
VH: EVQLLESGGGLVQPGGSLRLSCAASGFTFSSYAYSWVRQAPGKGLEWVSAISGSGGRTYYADSVKGRFTISRDNSKNTLYLQMNSLRAEDTAVYYCARLGYGRVDEWGRGTLVTVSS
VL: QSVLTQPPSASGTPGQRVTISCSGSLSNIGRNPVNWYQQLPGTAPKLLIYLDNLRLSGVPDRFSGSKSGTSASLAISGLQSEDEADYYCATWDDSHPGWTFGGGTKLTVLG
notes: Human IgG1-TM (L234F, L235E, P331S), lambda light chain; also called clone 10.3 antibody; 73combo3
Kd (KO_Cterm CD73 chimera): 1.7 pM
koff (KO_Cterm CD73 chimera): 8.1e-06 s⁻¹
kon (KO_Cterm CD73 chimera): 4.75e+06 M⁻¹ s⁻¹
koff [1]: 0.00425 s⁻¹
kon [1]: 1.58e+06 M⁻¹ s⁻¹
binding result [2]: no binding
koff [3]: 9.18e-05 s⁻¹
kon [3]: 1.13e+06 M⁻¹ s⁻¹

— patent US20230340152A1 (published 2023)
